In assay [1] the target is T1, M1R-G11CT (Homo sapiens (from template PDB 6OIJ), UniProt P11229, chimera).
T1 construct: M1 muscarinic acetylcholine receptor (M1R), N-terminal part through TM5 up to the fusion site T215 (5.65); de novo designed fusion protein (RFdiffusion, ProteinMPNN, AlphaFold2) put between T215 and A364 in place of ICL3; M1 muscarinic acetylcholine receptor (M1R), from the fusion site A364 (6.34) in TM6 to the C-terminus of the receptor; 2×GGSGG linker between the C-terminus of the receptor and …
Kind of assay: flow cytometry on cells; nanobody displayed on yeast, single colonies; stained with 10 nM fluorescence-labeled purified FLAG-tagged receptor (atropine-bound M1R-Clip1 or iperoxo-bound M1R-G11CT), Alexa Fluor-647 anti-FLAG and Alexa Fluor-488 anti-HA; selection buffer 20 mM HEPES pH 7.5, 100 mM NaCl, 0.05% MNG, 0.005% CHS, 2 mM CaCl2, 0.1% BSA, 0.2% maltose. Particulars: one partner purified. For orientation: A flow cytometer gives signals particle by particle.

In assay [2] the target is T1, M1R-G11CT. Kind of assay: cryo-EM structure; purified M1R-nanobody complexes on Au Quantifoil grids; Nb1B4 with M1R-G11CT and iperoxo, NbA12 with M1R-Clip1 and atropine. The following applies: both partners purified.
Target sequence in this assay (P11229 whole entry, stated change not applied, the tested form may be a part): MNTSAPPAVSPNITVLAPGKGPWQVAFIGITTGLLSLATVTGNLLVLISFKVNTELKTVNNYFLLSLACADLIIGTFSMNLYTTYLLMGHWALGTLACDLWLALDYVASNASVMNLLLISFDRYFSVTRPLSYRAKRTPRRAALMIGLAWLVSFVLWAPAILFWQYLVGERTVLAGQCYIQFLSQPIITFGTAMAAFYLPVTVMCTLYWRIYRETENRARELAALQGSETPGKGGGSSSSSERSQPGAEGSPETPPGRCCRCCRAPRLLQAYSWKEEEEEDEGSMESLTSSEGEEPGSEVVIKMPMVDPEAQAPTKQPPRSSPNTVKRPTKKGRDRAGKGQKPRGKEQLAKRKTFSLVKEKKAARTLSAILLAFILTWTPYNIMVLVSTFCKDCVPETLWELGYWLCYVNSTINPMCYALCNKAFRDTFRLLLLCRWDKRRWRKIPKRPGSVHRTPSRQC

This is an account of results in publication doi:10.1101/2025.03.25.645380, “Extracellular Nanobody Screening using Conformationally Stable GPCR” (bioRxiv, 2025).

B1: Nb1B4 displayed on yeast (VHH)
VHH: QVQLQESGGGLVQAGGSLRLSCAASGSIFYGYYMGWYRQAPGKEREFVATINYGASTNYADSVKGRFTISRDNAKNTVYLQMNSLKPEDTAVYYCAVRRVYVYVQRYYHYYWGQGTQVTVSS
notes: Yeast display fusion; also called active-state selective nanobody
Take B1: the binding result in the assay with M1R-G11CT [1] is “binds”.

B2: Nb1B4, purified (VHH)
VHH: B1 VHH
notes: also called active-state selective nanobody; source: E. coli BL21(DE3) periplasm or HEK293F supernatant, purified (Ni-NTA, SEC)
Consider B2, for which the binding result with M1R-G11CT [2] is “binds”.
